Experimental data from the domain aggregation screens of Martell et al. (2025).

Test: soluble fraction after stress (log2 fold change); higher = more stays soluble; pooled small domains, quantitative proteomics
Settings: stress: 75 degC
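Also: 20 min heating vs room temperature control held 20 min.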

## HMSQDTLIENGKVFLIHKVVAGQTLYGLSKAYNITIEDIIKYNPQAENGIKIGEDIKIFLKEE
  soluble fraction (log2): -0.924

## HMSQEHTVPDYKDMEATVVYADLTQKGLNYEIAQETSPTIKEGNVTQTIPGMNEKVVSGDTITVFVSTGTG
  soluble fraction (log2): 0.431

## HMSQIDLQIGHKIKSKRRKLGISQADMAKKLYISPSYLNLIESGKRKINVDLLLKLSNELGIEMSDIS
  soluble fraction (log2): -1.97

## HMSQIILSARSGHAALRHRLGELGYTFADKEFDDIYERFLEVADQKKEVYDEDLESIVQERQRD
  soluble fraction (log2): 0.00498

## HMSQITEADYIPNTDKTWGELMEETGESLPNLVERYNNEMTKSNGKEQPQSIIQRIIEDYQMVS
  soluble fraction (log2): 0.253

## HMSQLSDEQELRDIARGIIEGNPNEAEKYRAGRTGLLGFFVGKLMAETEGKANPRLASRILKELLE
  soluble fraction (log2): -0.144

## HMSQLSQIVDAFGGLRPFARALNKPPSTVQYWIEKGGIPASVVSPIMKLSEEKGLGLSRDQVSAAVS
  soluble fraction (log2): 0.441

## HMSQLTVGTVVTGNASLQTQGLKLPSFASGSRPASPNIGQMIWNSSDAKAQIWNGSEWDDVG
  soluble fraction (log2): -0.0784

## HMSQNVSFTVDSGQAGLRLDVFLSQADPAFSRSQIKYAIEEGDVTVNGKEPKVSQHLKDGDIVELHLE
  soluble fraction (log2): 0.0493

## HMSQQEAQLNSLVKIYESMKPKDAARIFDTLDMDVLLDVVMRMKEARSAAVLAEMTPDRAKEVTLQLAD
  soluble fraction (log2): -0.912

## HMSQTDQALRHLIREAWATLPQRQQQAVELAYYEGLPDTEIAARLNQPVEEVKTSIVLGMAHLREALHSY
  soluble fraction (log2): -0.811

## HMSQTDTDAKDARQKILALLSDGEWHQKTELLKIDAPKEAVSNAIRYLVLEELISIDHAKVRA
  soluble fraction (log2): -0.447

## HMSQTVKYVNTTSGLNMRTGPATSYAKITTIAYGQSVNVLSTSNGWSKINYSGSTGYVSSQYLQSKKPS
  soluble fraction (log2): -2.77

## HMSQVHYAVLFKNASAAEATEIVTYARETLGVQDIKINANGDILVPEDKVEEMRVSMSIAGFPK
  soluble fraction (log2): 0.23

## HMSQVSTKYINVSSAYVRSKPSKDGEIVTSLIKNTDVTVTGENGDWYKIKFNNYEGYIFKELLSDSKLEE
  soluble fraction (log2): -0.442

## HMSRAMFEMHADWQPTDSIRGLLGRAGLPTDIAKLDQSRIGDFVNHWFGKPDRNTADSWNGLLVGWLKRTQ
  soluble fraction (log2): -1.18

## HMSREEFLAGLEEALAGEVPASVIRENLNYYNSYISQEMAKGRTVDEIVDEIGEPRIVARTIIDSSEAAGE
  soluble fraction (log2): 0.319

## HMSRELVILGNSMLNNALKAFHVSPASIKKKHWDKLILDYHLESKNNILIDIALGKRINVMVAHQLTSIID
  soluble fraction (log2): 0.408

## HMSREVTVPPLSGLTLRDAARTLAERGLLMEAEGQGAVHRQDPPAGTRVPTGTPVRVFLTLPEQNS
  soluble fraction (log2): 0.842

## HMSRGTLFVDVRGAVAKPGVYELPEKSRVFQAVEAAGGLLPEALERLVNQAAELTDGQQVYIPFEGEE
  soluble fraction (log2): 0.405

## HMSRLLRTDAHLQYAAERGLPVTASAYTPVFAGAKQYTGRIESFDAQTIRFADGPAVERKAVARLEAE
  soluble fraction (log2): 0.104

## HMSRLLTTRQREVFEVATREGFWDVPRRINLSELAKVLGVAKSTLSSQLQRIESAVFHAFTDEIRRQS
  soluble fraction (log2): -2.09

## HMSRMLTVKQREVFDLAMREGYWETPRRITLTMLASLLSVSKSTLSVQLHKIEGTVLSSFSDEVRRRS
  soluble fraction (log2): -1.87

## HMSRQDYLQTIYRLSVGKGYTTNKKIADFLSVSKPSVTEMIGKLQGEGLVAMDGAHIFLTEDGAEQ
  soluble fraction (log2): -0.595

## HMSRVTVDVNPDVLQWAIDKKGKGDIKNKFPKIDEWLNGISKPTIHQLENFAKYVSVPFGYLLLSKPPVE
  soluble fraction (log2): 0.208

## HMSRYQDIANDIEKDIIEKKYTRKLPEQFELAQKYQTSRVTIVHALKILQNKKLIRTVKGHGTFITS
  soluble fraction (log2): -1.84

## HMSSDEDELESIIKRVFADNPIELERLQNGEDKLIKFFMGLVMRQTKGKYPPKIIIDLLNKS
  soluble fraction (log2): -0.599

## HMSSDLDQYMKNIRKQHNLSKREFAKQLGISAATIVRIENGITVSPSKNLISKLAYYLQKSEVEILQDIQS
  soluble fraction (log2): -1.16

## HMSSEMATLRSIVDNKQAEKVHGMMVDMFTASAMVQVYDKVNDENQAKMREMLKTQKGFQRMADFALSKI
  soluble fraction (log2): -0.143

## HMSSEPASLVGKTGVAASVLRPSGRVEVNGEYYDAVSINGFIEKGESVFVHKYENAQLYVSKNSE
  soluble fraction (log2): 0.162

## HMSSESIKTDKNVGVGSTLEELEKAYGSDYTLSGKMYRYYQDDNSKYMYFFILNDVVQYYGYGIDV
  soluble fraction (log2): -1.65

## HMSSIDLTARSGRAALKHRLSLLGYEFSKIELETLYVRFIELADEKKLLHDEDLIELVKEKN
  soluble fraction (log2): -3.12

## HMSSIRDVVPEGLLSDREKLVLVLAFDRDLDGPDMARTLGISANTVRVLKARALKKLRQAGIQP
  soluble fraction (log2): -0.954

## HMSSIVLTARSGRAALAYRVKSIGVDLSKDQLDLVYKTFLGFADKKKEIIDTDIPQILKASGI
  soluble fraction (log2): -2.74

## HMSSIYVYPNPTANRIYIQADNIKKAELFDLMGRKVRSTNQPQIDISRLSRGNYILQVKTQNNTQSFKIIK
  soluble fraction (log2): -0.705

## HMSSKAVLEKFEALFIDQMLQSMRKATVRSELFDSEGIKLYESLFDKEISEELAKSGGLGLTKDLEQQL
  soluble fraction (log2): -1.36

## HMSSKFKIVGEILSIKKSDILYIIEILSNNEVVKATAVEDEIKDLKIGDKILLSSKAFNPIVNK
  soluble fraction (log2): -2.29

## HMSSLTDNFVKALSYYLALSGKSKKEVADGIGIPPTTFSSWSNGKHLPDMDRLQNLATYLGAPVSEFFDFT
  soluble fraction (log2): 0.238

## HMSSPVGIAQATTYVYVRAGHSMQAAKVGVLSPGEKVGVTGRSAQGFSEVVYNGVHRWVGSRYLSPT
  soluble fraction (log2): -4.43
